Laboratory results published in paper PMC6120557.

Target: chemokine receptor 4 (CXCR4), GFP‐tagged, on MDAMB231 X4 cells (human) (UniProt P61073)
Experiment: flow cytometry on cells

UniProt P61073, sequence (P61073 whole entry): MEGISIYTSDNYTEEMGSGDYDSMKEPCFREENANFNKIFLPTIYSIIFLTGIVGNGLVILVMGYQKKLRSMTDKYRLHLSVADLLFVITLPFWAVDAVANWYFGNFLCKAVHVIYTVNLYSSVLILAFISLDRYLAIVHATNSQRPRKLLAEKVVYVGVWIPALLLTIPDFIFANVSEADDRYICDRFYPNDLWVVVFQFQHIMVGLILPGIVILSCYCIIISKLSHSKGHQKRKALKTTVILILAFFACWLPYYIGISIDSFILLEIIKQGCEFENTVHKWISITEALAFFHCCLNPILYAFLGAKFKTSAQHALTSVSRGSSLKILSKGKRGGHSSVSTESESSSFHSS

Row | Kd [nM] | Substance
1 | > 500 | Cy5‐S‐S‐Cy3‐AcTZ14011 (peptide)
2 | 222 | N3‐Cy5‐AcTZ14011 (peptide)
